According to patent US20240058465A1 (SUTRO BIOPHARMA, published 2024):
Changes are numbered by the printed parent chain.

B1: SRP2188-A06 (antibody, IgG1, V domains shown)
VH: EVQLVESGGGLVQPGGSLRLSCAASGFNIKSYDIHWVRQAPGKGLEWVGWINPDDGDTYHADSVKGRFTISADTSKNTAYLQMNSLRAEDTAVYYCARDYGVFDYWGQGTLVTVSS
VL: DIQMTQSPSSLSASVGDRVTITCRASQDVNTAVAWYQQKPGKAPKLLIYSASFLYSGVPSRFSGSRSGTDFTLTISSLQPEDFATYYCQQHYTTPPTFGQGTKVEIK
notes: IgG1 with trastuzumab LC; HIS- and FLAG-tagged; cell-free expressed
B2: SRP2188-B02 (antibody, IgG1, V domains shown)
VH: B1 VH with K30S, H60L, N77S
VL: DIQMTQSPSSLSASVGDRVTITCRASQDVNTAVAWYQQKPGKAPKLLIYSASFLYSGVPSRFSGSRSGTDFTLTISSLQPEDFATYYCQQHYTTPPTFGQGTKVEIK
notes: as for B1
B3: SRP2196-A03 (antibody, V domains shown)
VH: EVQLVESGGGLVQPGGSLRLSCAASGFNITQYHIHWVRQAPGKGLEWVGYISPNSGSTHEADSVKGRFTISADTSKNTAYLQMNSLRAEDTAVYYCARDSRRYVRGWDYWGQGTLVTVSS
VL: QAVVTQESALTTSPGETVTLTCRSSTGAVTTSNYANWVQEKPDHLFTGLIGGTNKRAPGVPARFSGSLIGDKAALTITGAQTEDEAIYFCALWYSNLWVFGGGTKLTVL
notes: His/FLAG-tagged IgG1; also called Antibody 150
B4: SRP2196-A09 (antibody, V domains shown)
VH: B3 VH with Q31G, H33Y, Y50Q, S57A, E60Y, V104I, G106S
VL: B3 VL
notes: His/FLAG-tagged IgG1
B5: SRP1944-A07 w SP34 LC3 (antibody, V domains shown)
VH: B3 VH with Q31G, H33Y, H59Y, E60Y, G106P, W107F
VL: QTVVTQEPSLTVSPGGTVTLTCGSSTGAVTSGYYPNWFQQKPGQAPRGLIGGTKFLAPGTPARFSGSLLGGKAALTLSGVQPEDEAEYYCALWYSNRWVFGGGTQLTVTG
notes: Parent of SRP2196; IgG
B6: SRP2196-C01 (antibody, V domains shown)
VH: EVQLVESGGGLVQPGGSLRLSCAASGFNIIGYYIHWVRQAPGKGLEWVGSITPLSGATSKADSVKGRFTISADTSKNTAYLQMNSLRAEDTAVYYCARDSRRYIRSWDYWGQGTLVTVSS
VL: B3 VL
notes: His/FLAG-tagged IgG1
B7: SRP2196-B03 (antibody, V domains shown)
VH: B3 VH with V12A, Q31G, H33Y, S57A, E60Y, G106P, W107F
VL: B3 VL
notes: His/FLAG-tagged IgG1
B8: SRP2196-C02 (antibody, V domains shown)
VH: B3 VH with Q31G, Y50F, S57W, H59Y, E60S, G106P, W107F
VL: B3 VL
notes: His/FLAG-tagged IgG1
B9: SRP2196-A06 (antibody, V domains shown)
VH: B3 VH with Q31G, H33Y, Y50Q, E60Q, E89G
VL: B3 VL
notes: His/FLAG-tagged IgG1
B10: SRP2196-B10 (antibody, V domains shown)
VH: B6 VH with I30T
VL: B3 VL
notes: His/FLAG-tagged IgG1; also called Antibody 167
B11: SRP2196-B06 (antibody, V domains shown)
VH: B3 VH with Q31G, H33Y, Y50Q, H59Y, E60S, R105L, G106S
VL: B3 VL
notes: His/FLAG-tagged IgG1
B12: SRP2196-A08 (antibody, V domains shown)
VH: B3 VH with Q31G, H33Y, H59Y, E60K, K76R, G106S
VL: B3 VL
notes: His/FLAG-tagged IgG1
B13: SRP2196-B01 (antibody, V domains shown)
VH: B3 VH with Q31G, H33Y, Y50Q, S57Y, H59Y, E60Y, A79T, G106S
VL: B3 VL
notes: His/FLAG-tagged IgG1
B14: SRP2196-A07 (antibody, V domains shown)
VH: B3 VH with Q31G, H33Y, Y50Q, H59Y, E60Y, N84S
VL: B3 VL
notes: His/FLAG-tagged IgG1
B15: SRP2196-B09 (antibody, V domains shown)
VH: B3 VH with G15E, Q31E, H33Y, H59Y, E60Y, G106S
VL: B3 VL
notes: His/FLAG-tagged IgG1; also called Antibody 160
B16: SRP2196-A04 (antibody, V domains shown)
VH: EVQLVESGGGLVQPGGSLRLSCAASGFNISPYYIHWVRQAPGKGLEWVGQIYPISGHTYQADSVKGRFTISADTSKNTAYLQMNSLRAEDTAVYYCARESRRYVGPFGYWGQGTLVTVSS
VL: B3 VL
notes: His/FLAG-tagged IgG1
B17: SRP2196-B11 (antibody, V domains shown)
VH: B6 VH with I30T, K43R, S50Q, T52S, L54N, A57Y, S59Y, K60Y
VL: B3 VL
notes: His/FLAG-tagged IgG1
B18: SRP2196-A10 (antibody, V domains shown)
VH: B3 VH with Q31G, H33Y, S57A, E60Y, T74I, Y94H, G106S
VL: B3 VL
notes: His/FLAG-tagged IgG1
B19: SRP2196-C04 (antibody, V domains shown)
VH: B3 VH with Q31G, H33Y, Y50F, S52A, N54L, E60N, D99E, R105N, G106P
VL: B3 VL
notes: His/FLAG-tagged IgG1; also called Antibody 162
B20: SRP2196-A05 (antibody, V domains shown)
VH: B3 VH with Q31N, H33Y, S57A, H59Y, E60Q, G106S
VL: B3 VL
notes: His/FLAG-tagged IgG1
B21: SRP2196-B02 (antibody, V domains shown)
VH: B3 VH with H33Y, S57Q, H59Y, E60D, G106S
VL: B3 VL
notes: His/FLAG-tagged IgG1
B22: SRP2196-A11 (antibody, V domains shown)
VH: B3 VH with Q31G, H33Y, Y50Q, S57T, H59Y, E60D
VL: B3 VL
notes: His/FLAG-tagged IgG1
B23: SRP2196-B04 (antibody, V domains shown)
VH: B3 VH with Q31E, H33Y, S57A, H59Y, E60Q
VL: B3 VL
notes: His/FLAG-tagged IgG1
B24: SRP2196-C03 (antibody, V domains shown)
VH: B3 VH with Q31G, H33Y, Y50Q, H59Y, E60S, N84S, R105L, G106S
VL: B3 VL
notes: His/FLAG-tagged IgG1

Tests used:
[1] = molecular target: T1, human ROR1 (hROR1) expressed on cells (human, UniProt Q01973 30-937); assay: flow cytometry, HCT116-hROR1 cells
T1 construct: Mino cells are the target positive cells of the killing assay; also called receptor tyrosine kinase like orphan receptor 1; HCT 116-hROR1

[2] = molecular target: T2, human ROR1 Frizzled domain (hROR1-Fz) (human, UniProt Q01973 165-305); assay: SPR Biacore, IgG on anti-Fc, ROR1-Fz analyte
T2 construct: Acro Biosystems, made in HEK293
Summary of the method: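 Test antibodies captured on an anti-Fc surface (CM5 chip), then analyte bound for 180 s with 600 s dissociation at 25° C in HBS-EP+ buffer at 50 μL/min. Human ROR1 ECD, Frizzled or Kringle domain used as analyte; regeneration with 10 mM glycine pH 2.0.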

human ROR1 (hROR1) = molecular target: T3, human ROR1 (hROR1) (human, UniProt Q01973 30-937); assay: flow cytometry, HCT116-hROR1 cells
T3 construct: On HCT116-hROR1 transfectants, Mino cells or Ntera-2 cells, as the assay of each row says; also called receptor tyrosine kinase like orphan receptor 1

Binder | Bmax (MFI) [1] [MFI] | Kd [1] [nM] | Kd [2] [nM] | koff [2] [s⁻¹] | kon [2] [M⁻¹ s⁻¹] | Bmax (MFI) (human ROR1 (hROR1)) | Kd (human ROR1 (hROR1)) [nM]
B1 | 8950 | 0.02 |  |  |  |  | 
B2 | 9760 | 0.03 |  |  |  |  | 
B3 |  |  | 1.63 | 0.000275 | 169000 | 15400 | 0.3
B4 |  |  | 3.79 | 0.000568 | 150000 | 14600 | 0.2
B5 |  |  | 14.3 | 0.0085 | 597000 | 13200 | 0.1
B6 |  |  | 3.66 | 0.000457 | 125000 | 15700 | 0.3
B7 |  |  | 7.64 | 0.000945 | 124000 | 15600 | 0.6
B8 |  |  | 3.02 | 0.00036 | 119000 | 15300 | 0.6
B9 |  |  | 3.82 | 0.00069 | 180000 | 14600 | 0.2
B10 |  |  | 2.61 | 0.000334 | 128000 | 14700 | 0.3
B11 |  |  | 2.98 | 0.000423 | 142000 | 14800 | 0.4
B12 |  |  | 4.26 | 0.00078 | 183000 | 13900 | 0.2
B13 |  |  | 3.06 | 0.000401 | 131000 | 15300 | 0.3
B14 |  |  | 3.44 | 0.00064 | 186000 | 14100 | 0.2
B15 |  |  | 3.28 | 0.000427 | 130000 | 15000 | 0.6
B16 |  |  | 2.46 | 0.000343 | 139000 | 14200 | 0.1
B17 |  |  | 4.36 | 0.000597 | 137000 | 14700 | 0.2
B18 |  |  | 2.78 | 0.000479 | 172000 | 14400 | 0.3
B19 |  |  | 5.35 | 0.000704 | 131000 | 13800 | 0.5
B20 |  |  | 3.9 | 0.000682 | 175000 | 14800 | 0.3
B21 |  |  | 1.39 | 0.000227 | 163000 | 14900 | 0.3
B22 |  |  | 4.16 | 0.000792 | 191000 | 14000 | < 0.05
B23 |  |  | 2.78 | 0.000352 | 127000 | 14400 | 0.5
B24 |  |  | 3.23 | 0.000461 | 143000 | 15000 | 0.4
